In article doi:10.1101/2023.01.01.522448:
“And” between values parts separate entries of the source, which are not always exact repeats. Equal values may be shown once.

How the values were obtained:
[1] = target: recombinant L-asparaginase from Pseudomonas resinovorans IGS-131 (PrASNase) (Pseudomonas resinovorans IGS-131); experiment: SAXS
[2] = target: recombinant L-asparaginase from Pseudomonas resinovorans IGS-131 (PrASNase) (Pseudomonas resinovorans IGS-131); experiment: AUC
[3] = target: recombinant L-asparaginase from Pseudomonas resinovorans IGS-131 (PrASNase) (Pseudomonas resinovorans IGS-131); experiment: SEC
[4] = target: recombinant L-asparaginase from Pseudomonas resinovorans IGS-131 (PrASNase) (Pseudomonas resinovorans IGS-131); experiment: cross-linking + SEC
[5] = target: recombinant L-asparaginase from Pseudomonas resinovorans IGS-131 (PrASNase) (Pseudomonas resinovorans IGS-131); experiment: SEC; remark: listed apart in the source

## recombinant L-asparaginase from Pseudomonas resinovorans IGS-131 (PrASNase) (enzyme)
[1]
  stoichiometry N: 2 and 4
[2]
  percent present as dimer: 4.8%
  percent present as monomer: 94.9%
[3]
  stoichiometry N: 2
[4]
  stoichiometry N: 2
[5]
  stoichiometry N: 2
